According to the supplement of paper PMC10567573:

B1: SMG5 (parent)
chain: TRKLSPGKKRCKDIKRLLVNFMYL
B2: HDAC6 (parent)
chain: ACAQLATGAACRLVEAVLSGEVLN

Variants of: B1
Assay: protein stability index of a GFP-peptide fusion (GPS, HEK-293T) (PSI 1-6); higher = more stable
Conditions: c terminus: a fixed tail appended
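Note: lentivirally expressed fusions sorted by FACS into six bins by GFP to DsRed ratio, PSI derived from sequencing read proportions per bin multiplied by bin number.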

Row | Variant | protein stability index
1 | TRKLSPGKKRCKDIKRLLDNFMYL [V19D] | 2.34
2 | TRKLSPGKKRCKDIKRLLENFMYL [V19E] | 1.68
3 | TRKLSPGKKRCKDIKRLLGNFMYL [V19G] | 2.1
4 | TRKLSPGKKRCKDIKRLLHNFMYL [V19H] | 2.72
5 | TRKLSPGKKRCKDIKRLLINFMYL [V19I] | 1.66
6 | TRKLSPGKKRCKDIKRLLLNFMYL [V19L] | 3.43
7 | TRKLSPGKKRCKDIKRLLMNFMYL [V19M] | 2.59
8 | TRKLSPGKKRCKDIKRLLNNFMYL [V19N] | 2.21
9 | TRKLSPGKKRCKDIKRLLPNFMYL [V19P] | 2.62
10 | TRKLSPGKKRCKDIKRLLQNFMYL [V19Q] | 2.26
11 | TRKLSPGKKRCKDIKRLLSNFMYL [V19S] | 2.12
12 | TRKLSPGKKRCKDIKRLLTNFMYL [V19T] | 1.84
13 | TRKLSPGKKRCKDIKRLLYNFMYL [V19Y] | 4.05
14 | TRKLSPGKKRCKDIKRLLVDFMYL [N20D] | 3.56
15 | TRKLSPGKKRCKDIKRLLVEFMYL [N20E] | 3.09
16 | TRKLSPGKKRCKDIKRLLVFFMYL [N20F] | 4.01
17 | TRKLSPGKKRCKDIKRLLVHFMYL [N20H] | 3.2
18 | TRKLSPGKKRCKDIKRLLVIFMYL [N20I] | 3.42
19 | TRKLSPGKKRCKDIKRLLVKFMYL [N20K] | 2.12
20 | TRKLSPGKKRCKDIKRLLVPFMYL [N20P] | 3.07
21 | TRKLSPGKKRCKDIKRLLVQFMYL [N20Q] | 3.52
22 | TRKLSPGKKRCKDIKRLLVSFMYL [N20S] | 3.78

Row | Variant | protein stability index
23 | TRKLSPGKKRCKDIKRLLVVFMYL [N20V] | 2.79
24 | TRKLSPGKKRCKDIKRLLVWFMYL [N20W] | 1.09
25 | TRKLSPGKKRCKDIKRLLVYFMYL [N20Y] | 2.56
26 | TRKLSPGKKRCKDIKRLLVNAMYL [F21A] | 1.76
27 | TRKLSPGKKRCKDIKRLLVNCMYL [F21C] | 1.21
28 | TRKLSPGKKRCKDIKRLLVNDMYL [F21D] | 2.37
29 | TRKLSPGKKRCKDIKRLLVNEMYL [F21E] | 1.75
30 | TRKLSPGKKRCKDIKRLLVNGMYL [F21G] | 1.63
31 | TRKLSPGKKRCKDIKRLLVNHMYL [F21H] | 1.49
32 | TRKLSPGKKRCKDIKRLLVNIMYL [F21I] | 3.19
33 | TRKLSPGKKRCKDIKRLLVNKMYL [F21K] | 2.12
34 | TRKLSPGKKRCKDIKRLLVNNMYL [F21N] | 1.97
35 | TRKLSPGKKRCKDIKRLLVNPMYL [F21P] | 1.6
36 | TRKLSPGKKRCKDIKRLLVNQMYL [F21Q] | 1.71
37 | TRKLSPGKKRCKDIKRLLVNRMYL [F21R] | 1.88
38 | TRKLSPGKKRCKDIKRLLVNSMYL [F21S] | 2.88
39 | TRKLSPGKKRCKDIKRLLVNTMYL [F21T] | 1.99
40 | TRKLSPGKKRCKDIKRLLVNWMYL [F21W] | 1.91
41 | TRKLSPGKKRCKDIKRLLVNYMYL [F21Y] | 1.76
42 | TRKLSPGKKRCKDIKRLLVNFCYL [M22C] | 1.75
43 | TRKLSPGKKRCKDIKRLLVNFDYL [M22D] | 2.34
44 | TRKLSPGKKRCKDIKRLLVNFEYL [M22E] | 2.45

Row | Variant | protein stability index
45 | TRKLSPGKKRCKDIKRLLVNFFYL [M22F] | 2.29
46 | TRKLSPGKKRCKDIKRLLVNFGYL [M22G] | 2.04
47 | TRKLSPGKKRCKDIKRLLVNFHYL [M22H] | 1.65
48 | TRKLSPGKKRCKDIKRLLVNFKYL [M22K] | 1.86
49 | TRKLSPGKKRCKDIKRLLVNFNYL [M22N] | 1.95
50 | TRKLSPGKKRCKDIKRLLVNFPYL [M22P] | 2.39
51 | TRKLSPGKKRCKDIKRLLVNFQYL [M22Q] | 1.34
52 | TRKLSPGKKRCKDIKRLLVNFRYL [M22R] | 2.4
53 | TRKLSPGKKRCKDIKRLLVNFSYL [M22S] | 1.39
54 | TRKLSPGKKRCKDIKRLLVNFTYL [M22T] | 2.11
55 | TRKLSPGKKRCKDIKRLLVNFVYL [M22V] | 2.33
56 | TRKLSPGKKRCKDIKRLLVNFYYL [M22Y] | 2.96
57 | TRKLSPGKKRCKDIKRLLVNFMAL [Y23A] | 2.85
58 | TRKLSPGKKRCKDIKRLLVNFMDL [Y23D] | 2.01
59 | TRKLSPGKKRCKDIKRLLVNFMFL [Y23F] | 1.64
60 | TRKLSPGKKRCKDIKRLLVNFMHL [Y23H] | 2.35
61 | TRKLSPGKKRCKDIKRLLVNFMIL [Y23I] | 3.31
62 | TRKLSPGKKRCKDIKRLLVNFMKL [Y23K] | 2.93
63 | TRKLSPGKKRCKDIKRLLVNFMML [Y23M] | 2.94
64 | TRKLSPGKKRCKDIKRLLVNFMPL [Y23P] | 1.81
65 | TRKLSPGKKRCKDIKRLLVNFMRL [Y23R] | 2.05
66 | TRKLSPGKKRCKDIKRLLVNFMSL [Y23S] | 3.81

Row | Variant | protein stability index
67 | TRKLSPGKKRCKDIKRLLVNFMTL [Y23T] | 2.18
68 | TRKLSPGKKRCKDIKRLLVNFMVL [Y23V] | 4.04
69 | TRKLSPGKKRCKDIKRLLVNFMWL [Y23W] | 2.16
70 | TRKLSPGKKRCKDIKRLLVNFMYA [L24A] | 2.34
71 | TRKLSPGKKRCKDIKRLLVNFMYC [L24C] | 1.39
72 | TRKLSPGKKRCKDIKRLLVNFMYD [L24D] | 1.2
73 | TRKLSPGKKRCKDIKRLLVNFMYE [L24E] | 1.96
74 | TRKLSPGKKRCKDIKRLLVNFMYF [L24F] | 2.53
75 | TRKLSPGKKRCKDIKRLLVNFMYG [L24G] | 2.92
76 | TRKLSPGKKRCKDIKRLLVNFMYH [L24H] | 1.55
77 | TRKLSPGKKRCKDIKRLLVNFMYI [L24I] | 4.07
78 | TRKLSPGKKRCKDIKRLLVNFMYK [L24K] | 2.46
79 | TRKLSPGKKRCKDIKRLLVNFMYM [L24M] | 3
80 | TRKLSPGKKRCKDIKRLLVNFMYP [L24P] | 2.63
81 | TRKLSPGKKRCKDIKRLLVNFMYQ [L24Q] | 2.04
82 | TRKLSPGKKRCKDIKRLLVNFMYR [L24R] | 2.39
83 | TRKLSPGKKRCKDIKRLLVNFMYS [L24S] | 1.98
84 | TRKLSPGKKRCKDIKRLLVNFMYT [L24T] | 2.02
85 | TRKLSPGKKRCKDIKRLLVNFMYW [L24W] | 1.9
86 | TRKLSPGKKRCKDIKRLLVNFMYY [L24Y] | 2.08

Variants of: B2
Assay: as above
Conditions: c terminus: a fixed tail appended

Row | Variant | protein stability index
87 | CCAQLATGAACRLVEAVLSGEVLN [A1C] | 1.16
88 | ECAQLATGAACRLVEAVLSGEVLN [A1E] | 3.75
89 | GCAQLATGAACRLVEAVLSGEVLN [A1G] | 1
90 | KCAQLATGAACRLVEAVLSGEVLN [A1K] | 1.92
91 | PCAQLATGAACRLVEAVLSGEVLN [A1P] | 1.53
92 | SCAQLATGAACRLVEAVLSGEVLN [A1S] | 3.19
93 | TCAQLATGAACRLVEAVLSGEVLN [A1T] | 4.34
94 | ADAQLATGAACRLVEAVLSGEVLN [C2D] | 2.98
